1 molecule from patent publication US20230313305A1, “METHODS AND USES OF INFLAMMATORY BOWEL DISEASE BIOMARKERS” (Washington University, priority 2017, published 2023) can be followed below.

The subject of the experiment is latent TGFβ. Kind of experiment: Cleavage of latent TGFβ by tPA in cell free assay. In kind it is biochemical. Conditions: cell free assay (FIG. 22).

B1: tPA: serine protease that converts plasminogen to plasmin (protein, UniProt P00750 36-562, looked up)
Tissue-type plasminogen …: SYQVICRDEKTQMIYQQHQSWLRPVLRSNRVEYCWCNSGRAQCHSVPVKSCSEPRCFNGGTCQQALYFSDFVCQCPEGFAGKCCEIDTRATCYEDQGISYRGTWSTAESGAECTNWNSSALAQKPYSGRRPDAIRLGLGNHNYCRNPDRDSKPWCYVFKAGKYSSEFCSTPACSEGNSDCYFGNGSAYRGTHSLTESGASCLPWNSMILIGKVYTAQNPSAQALGLGKHNYCRNPDGDAKPWCHVLKNRRLTWEYCDVPSCSTCGLRQYSQPQFRIKGGLFADIASHPWQAAIFAKHRRSPGERFLCGGILISSCWILSAAHCFQERFPPHHLTVILGRTYRVVPGEEEQKFEVEKYIVHKEFDDDTYDNDIALLQLKSDSSRCAQESSVVRTVCLPPADLQLPDWTECELSGYGKHEALSPFYSERLKEAHVRLYPSSRCTSQHLLNRTVTDNMLCAGDTRSGGPQANLHDACQGDSGGPLVCLNDGRMTLVGIISWGLGCGQKDVPGVYTKVTNYLDWIRDNMRP
Regarding B1, the “cleavage of latent TGFβ” value is “can directly and indirectly cleave”.
